Reference: patent US20180155451A1 (published 2018)

B1: H240-Kn061/H240-Hl071/L73-k0 variant with V240F introduced into H240-Hl071 (antibody, human IgG1, kappa)
heavy 1: QDQLVQSGAEVKKPGASVKVSCKASGFNIKDTYIQWVRQAPGQGLEWMGRIDPLRKQTKYREKFEGRVTITADTSTNTAYMELSSLRSEDTAVYYCVRSGREFDYWGQGTLVTVSSASTKGPSVFPLAPSSKSTSGGTAALGCLVKDYFPEPVTVSWNSGALTSGVHTFPAVLQSSGLYSLSSVVTVPSSSLGTQTYICNVNHKPSNTKVDKKVEPKSCDKTHTCPPCPAPEYYWGPSVFLFPPKPKDTLMISRTPEVTCVVVDVSDEDPEVKFNWYVDGVEVHNAKTKPREEQYNATYRVVSVLTVLHQDWLNGKEYKCKVSNKALPAPIEKTISKAKGQPREPQVCTLPPSRDELTKNQVSLWCLVKGFYPSDIAVEWESNGQPENNYKTTPPVLDSDGSFFLYSKLTVDKSRWQQGNVFSCSVMHEALHNHYTQKSLSLSP
heavy 2: QDQLVQSGAEVKKPGASVKVSCKASGFNIKDTYIQWVRQAPGQGLEWMGRIDPLRKQTKYREKFEGRVTITADTSTNTAYMELSSLRSEDTAVYYCVRSGREFDYWGQGTLVTVSSASTKGPSVFPLAPSSKSTSGGTAALGCLVKDYFPEPVTVSWNSGALTSGVHTFPAVLQSSGLYSLSSVVTVPSSSLGTQTYICNVNHKPSNTKVDKKVEPKSCDKTHTCPPCPAPELLGGPSFFLFPPKPKDTLMISRTPEVTCVVVDVSHEDPEVKFNWYVDGVEVHNAKTKPREEQYNSTYRVVSVLTVLHQDWLNGKEYKCKVSNDALPMPIEETISKAKGQPREPQVYTLPPSRCELTKNQVSLSCAVKGFYPSDIAVEWESNGQPENNYKTTPPVLDSDGSFFLVSKLTVDKSRWQQGNVFSCSVMHEALHNHYTQKSLSLSP
light: DIQMTQSPSSLSASVGDRVTITCRASQDIHKYIAWYQQKPGQAPRLLIQYTSTLQPGVPSRFSGSGSGTDYTFTISSLQPEDIATYYCLQYEQLRTFGGGTKVEIKRTVAAPSVFIFPPSDEQLKSGTASVVCLLNNFYPREAKVQWKVDNALQSGNSQESVTEQDSKDSTYSLSSTLTLSKADYEKHKVYACEVTHQGLSSPVTKSFNRGEC
notes: Point variant made with H240-Kn061/H240-Hl071/L73-k0 as template; position by EU numbering; also called H240-Hl071 V240F
B2: H240-Kn061/H240-Hl071/L73-k0 variant with Y234E introduced into H240-Kn061 (antibody, human IgG1, kappa)
heavy 1: QDQLVQSGAEVKKPGASVKVSCKASGFNIKDTYIQWVRQAPGQGLEWMGRIDPLRKQTKYREKFEGRVTITADTSTNTAYMELSSLRSEDTAVYYCVRSGREFDYWGQGTLVTVSSASTKGPSVFPLAPSSKSTSGGTAALGCLVKDYFPEPVTVSWNSGALTSGVHTFPAVLQSSGLYSLSSVVTVPSSSLGTQTYICNVNHKPSNTKVDKKVEPKSCDKTHTCPPCPAPEEYWGPSVFLFPPKPKDTLMISRTPEVTCVVVDVSDEDPEVKFNWYVDGVEVHNAKTKPREEQYNATYRVVSVLTVLHQDWLNGKEYKCKVSNKALPAPIEKTISKAKGQPREPQVCTLPPSRDELTKNQVSLWCLVKGFYPSDIAVEWESNGQPENNYKTTPPVLDSDGSFFLYSKLTVDKSRWQQGNVFSCSVMHEALHNHYTQKSLSLSP
heavy 2: QDQLVQSGAEVKKPGASVKVSCKASGFNIKDTYIQWVRQAPGQGLEWMGRIDPLRKQTKYREKFEGRVTITADTSTNTAYMELSSLRSEDTAVYYCVRSGREFDYWGQGTLVTVSSASTKGPSVFPLAPSSKSTSGGTAALGCLVKDYFPEPVTVSWNSGALTSGVHTFPAVLQSSGLYSLSSVVTVPSSSLGTQTYICNVNHKPSNTKVDKKVEPKSCDKTHTCPPCPAPELLGGPSVFLFPPKPKDTLMISRTPEVTCVVVDVSHEDPEVKFNWYVDGVEVHNAKTKPREEQYNSTYRVVSVLTVLHQDWLNGKEYKCKVSNDALPMPIEETISKAKGQPREPQVYTLPPSRCELTKNQVSLSCAVKGFYPSDIAVEWESNGQPENNYKTTPPVLDSDGSFFLVSKLTVDKSRWQQGNVFSCSVMHEALHNHYTQKSLSLSP
light: DIQMTQSPSSLSASVGDRVTITCRASQDIHKYIAWYQQKPGQAPRLLIQYTSTLQPGVPSRFSGSGSGTDYTFTISSLQPEDIATYYCLQYEQLRTFGGGTKVEIKRTVAAPSVFIFPPSDEQLKSGTASVVCLLNNFYPREAKVQWKVDNALQSGNSQESVTEQDSKDSTYSLSSTLTLSKADYEKHKVYACEVTHQGLSSPVTKSFNRGEC
notes: Point variant made with H240-Kn061/H240-Hl071/L73-k0 as template; position by EU numbering; also called H240-Kn061 Y234E
B3: H240-Kn061/H240-Hl071/L73-k0 variant with Y235N introduced into H240-Kn061 (antibody, human IgG1, kappa)
heavy 1: QDQLVQSGAEVKKPGASVKVSCKASGFNIKDTYIQWVRQAPGQGLEWMGRIDPLRKQTKYREKFEGRVTITADTSTNTAYMELSSLRSEDTAVYYCVRSGREFDYWGQGTLVTVSSASTKGPSVFPLAPSSKSTSGGTAALGCLVKDYFPEPVTVSWNSGALTSGVHTFPAVLQSSGLYSLSSVVTVPSSSLGTQTYICNVNHKPSNTKVDKKVEPKSCDKTHTCPPCPAPEYNWGPSVFLFPPKPKDTLMISRTPEVTCVVVDVSDEDPEVKFNWYVDGVEVHNAKTKPREEQYNATYRVVSVLTVLHQDWLNGKEYKCKVSNKALPAPIEKTISKAKGQPREPQVCTLPPSRDELTKNQVSLWCLVKGFYPSDIAVEWESNGQPENNYKTTPPVLDSDGSFFLYSKLTVDKSRWQQGNVFSCSVMHEALHNHYTQKSLSLSP
heavy 2: QDQLVQSGAEVKKPGASVKVSCKASGFNIKDTYIQWVRQAPGQGLEWMGRIDPLRKQTKYREKFEGRVTITADTSTNTAYMELSSLRSEDTAVYYCVRSGREFDYWGQGTLVTVSSASTKGPSVFPLAPSSKSTSGGTAALGCLVKDYFPEPVTVSWNSGALTSGVHTFPAVLQSSGLYSLSSVVTVPSSSLGTQTYICNVNHKPSNTKVDKKVEPKSCDKTHTCPPCPAPELLGGPSVFLFPPKPKDTLMISRTPEVTCVVVDVSHEDPEVKFNWYVDGVEVHNAKTKPREEQYNSTYRVVSVLTVLHQDWLNGKEYKCKVSNDALPMPIEETISKAKGQPREPQVYTLPPSRCELTKNQVSLSCAVKGFYPSDIAVEWESNGQPENNYKTTPPVLDSDGSFFLVSKLTVDKSRWQQGNVFSCSVMHEALHNHYTQKSLSLSP
light: DIQMTQSPSSLSASVGDRVTITCRASQDIHKYIAWYQQKPGQAPRLLIQYTSTLQPGVPSRFSGSGSGTDYTFTISSLQPEDIATYYCLQYEQLRTFGGGTKVEIKRTVAAPSVFIFPPSDEQLKSGTASVVCLLNNFYPREAKVQWKVDNALQSGNSQESVTEQDSKDSTYSLSSTLTLSKADYEKHKVYACEVTHQGLSSPVTKSFNRGEC
notes: Point variant made with H240-Kn061/H240-Hl071/L73-k0 as template; position by EU numbering; also called H240-Kn061 Y235N

Tests used:
Assay in all cases: SPR (Biacore) KD ratio against the template H240-Kn061/H240-Hl071/L73-k0
[1] = target: T1, FcgRIIIa F extracellular domain with C-terminal His tag (human, UniProt P08637 17-208)
T1 construct: extracellular domain; also called FcγRIIIa F; FcγRIIIa (F158); not shown: His tag attached to the C terminus
Protocol: (§1) The antibodies were assessed for the binding to each FcgR. […] The resultant value was defined as relative KD, and used as an assessment indicator.
(§2) Analysis of interaction between obj ective antibody and the FcγR was carried out using Biacore T100 (GE Healthcare), Biacore T200, Biacore A100, and Biacore 4000. HBS-EP+ (GE Healthcare) was used as the running buffer, and the measurement temperature was set to 25° C. Chips produced by immobilizing the antigen peptide by the amine coupling method to a Series S sensor Chip CM5 (GE Healthcare), chips produced by allowing preliminarily biotinylated antigen peptides to interact with and immobilize onto a Series S Sensor Chip SA (certified) (GE Healthcare), chips produced by immobilizing Protein L (ACTIGEN, BioVision) to Series S Sencor Chip CM5 (GE Healthcare), or chips produced by immobilizing Protein A/G (Thermo Scientific) to Series S Sencor Chip CM5 (GE Healthcare) were used. Antibodies of interest were captured onto these chips, and allowed to interact to each FcγR diluted with running buffer.

[2] = target: T2, FcgRIIa R extracellular domain with C-terminal His tag (human, UniProt P12318 34-217)
T2 construct: extracellular domain; also called FcγRIIa R; FcγRIIa type R; not shown: His tag attached to the C terminus
T2 sequence (looked up): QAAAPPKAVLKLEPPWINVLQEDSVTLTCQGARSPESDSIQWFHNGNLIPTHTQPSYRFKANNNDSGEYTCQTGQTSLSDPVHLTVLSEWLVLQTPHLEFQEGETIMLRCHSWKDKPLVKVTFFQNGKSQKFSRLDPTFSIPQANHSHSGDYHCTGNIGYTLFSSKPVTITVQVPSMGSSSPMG
Protocol: as §1, §2

[3] = target: T3, FcgRIIa H extracellular domain with C-terminal His tag (human, UniProt P12318 34-217)
T3 construct: extracellular domain; also called FcγRIIa H; FcγRIIa type H; not shown: His tag attached to the C terminus
T3 sequence (looked up): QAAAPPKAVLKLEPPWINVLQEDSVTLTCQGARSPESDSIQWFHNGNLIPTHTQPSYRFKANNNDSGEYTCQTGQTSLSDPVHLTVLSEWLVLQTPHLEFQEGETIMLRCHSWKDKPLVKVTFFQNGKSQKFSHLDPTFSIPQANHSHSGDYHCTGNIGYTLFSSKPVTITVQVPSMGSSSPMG
Protocol: as §1, §2

[4] = target: T4, FcgRIIb extracellular domain with C-terminal His tag (human, UniProt P31994 43-217)
T4 construct: extracellular domain; also called FcγRIIb; not shown: His tag attached to the C terminus
T4 sequence (looked up): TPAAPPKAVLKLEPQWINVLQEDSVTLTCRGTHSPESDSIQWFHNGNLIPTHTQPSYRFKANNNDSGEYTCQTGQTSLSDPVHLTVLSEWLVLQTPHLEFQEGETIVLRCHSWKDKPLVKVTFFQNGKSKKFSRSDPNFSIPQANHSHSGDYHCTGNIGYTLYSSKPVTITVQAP
Protocol: as §1, §2

[5] = target: T5, FcgRIIIa V extracellular domain with C-terminal His tag (human, UniProt P08637 17-208)
T5 construct: extracellular domain; also called FcγRIIIa V; FcγRIIIa (V158); not shown: His tag attached to the C terminus
Protocol: as §1, §2

T1 sequence (P08637 17-208): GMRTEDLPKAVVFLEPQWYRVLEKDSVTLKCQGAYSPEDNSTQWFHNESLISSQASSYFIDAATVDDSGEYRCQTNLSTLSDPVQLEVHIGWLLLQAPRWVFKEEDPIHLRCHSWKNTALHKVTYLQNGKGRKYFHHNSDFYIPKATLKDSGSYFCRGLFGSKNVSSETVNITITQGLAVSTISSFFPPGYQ
T5 sequence (P08637 17-208 F176V): as the sequence (P08637 17-208) above, with F160V counted along it

relative KD (KD of H240-Kn061/H240-Hl071/L73-k0 / KD of variant) [1] | relative KD (KD of H240-Kn061/H240-Hl071/L73-k0 / KD of variant) [2] | relative KD (KD of H240-Kn061/H240-Hl071/L73-k0 / KD of variant) [3] | relative KD (KD of H240-Kn061/H240-Hl071/L73-k0 / KD of variant) [4] | relative KD (KD of H240-Kn061/H240-Hl071/L73-k0 / KD of variant) [5] | Binder
1.4 | 1.1 | 0.9 | 0.9 | 1 | B1
1.9 | 1.4 | 0.7 | 0.5 | 1.6 | B2
1.3 | 1 | 0.7 | 0.7 | 2 | B3
